According to patent US20240270846A1 (published 2024):

target: T1, CD3 epsilon homodimer protein (UniProt P07766 23-126); test: SPR, CD3e homodimer on chip;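 also: surface plasmon resonance at 25 degrees C, antibodies flowed as analyte over CD3 epsilon homodimer amine-coupled to a CM4 chip, running buffer HBS-EP+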
T1 construct: also called CD3 (CD3 epsilon)
T1 sequence (P07766 23-126): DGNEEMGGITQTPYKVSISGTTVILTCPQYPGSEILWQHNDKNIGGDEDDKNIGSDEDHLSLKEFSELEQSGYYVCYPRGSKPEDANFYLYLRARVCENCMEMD

| ratio of amounts bound (altered form / unaltered GLS3000 antibody) | Binder |
| --- | --- |
| 0.45 | GLS3000 N28T one-arm antibody (H chain CE115HA000) (antibody, human IgG1, kappa, L234A L235A, N297A, name in Kabat numbering, one-arm antibody) heavy: QVQLVESGGGVVQPGRSLRLSCAASGFTFSNAWMHWVRQAPGKGLEWVAQIKAKSNNYATYYAESVKGRFTISRDDSKNSLYLQMNSLKTEDTAVYYCRYVHYGAYYGVDAWGQGTTVTVSSASTKGPSVFPLAPSSKSTSGGTAALGCLVKDYFPEPVTVSWNSGALTSGVHTFPAVLQSSGLYSLSSVVTVPSSSLGTQTYICNVNHKPSNTKVDKKVEPKSCDKTHTCPPCPAPEAAGGPSVFLFPPKPKDTLMISRTPEVTCVVVDVSHEDPEVKFNWYVDGVEVHNAKTKPREEQYASTYRVVSVLTVLHQDWLNGKEYKCKVSNKALPAPIEKTISKAKGQPREPQVYTLPPSRCELTKNQVSLSCAVKGFYPSDIAVEWESNGQPENNYKTTPPVLDSDGSFFLVSKLTVDKSRWQQGNVFSCSVMHEALHNHYTQKSLSLSPDYKDDDDK EPKSSDKTHTCPPCPAPELLGGPSVFLFPPKPKDTLMISRTPEVTCVVVDVSHEDPEVKFNWYVDGVEVHNAKTKPREEQYNSTYRVVSVLTVLHQDWLNGKEYKCKVSNKALPAPIEKTISKAKGQPREPQVCTLPPSRDELTKNQVSLWCLVKGFYPSDIAVEWESNGQPENNYKTTPPVLDSDGSFFLYSKLTVDKSRWQQGNVFSCSVMHEALHNRYTQKSLSLSP light: DIVMTQSPLSLPVTPGEPASISCRSSQSLVHSTRNTYLHWYQQKPGQAPRLLIYKVSNRFSGVPDRFSGSGSGTDFTLKISRVEAEDVGVYYCGQGTQVPYTFGQGTKLEIKRTVAAPSVFIFPPSDEQLKSGTASVVCLLNNFYPREAKVQWKVDNALQSGNSQESVTEQDSKDSTYSLSSTLTLSKADYEKHKVYACEVTHQGLSSPVTKSFNRGEC |
| 0.5 | GLS3000 N30A one-arm antibody (H chain CE115HA000) (antibody, human IgG1, kappa, L234A L235A, N297A, name in Kabat numbering, one-arm antibody) heavy: QVQLVESGGGVVQPGRSLRLSCAASGFTFSNAWMHWVRQAPGKGLEWVAQIKAKSNNYATYYAESVKGRFTISRDDSKNSLYLQMNSLKTEDTAVYYCRYVHYGAYYGVDAWGQGTTVTVSSASTKGPSVFPLAPSSKSTSGGTAALGCLVKDYFPEPVTVSWNSGALTSGVHTFPAVLQSSGLYSLSSVVTVPSSSLGTQTYICNVNHKPSNTKVDKKVEPKSCDKTHTCPPCPAPEAAGGPSVFLFPPKPKDTLMISRTPEVTCVVVDVSHEDPEVKFNWYVDGVEVHNAKTKPREEQYASTYRVVSVLTVLHQDWLNGKEYKCKVSNKALPAPIEKTISKAKGQPREPQVYTLPPSRCELTKNQVSLSCAVKGFYPSDIAVEWESNGQPENNYKTTPPVLDSDGSFFLVSKLTVDKSRWQQGNVFSCSVMHEALHNHYTQKSLSLSPDYKDDDDK EPKSSDKTHTCPPCPAPELLGGPSVFLFPPKPKDTLMISRTPEVTCVVVDVSHEDPEVKFNWYVDGVEVHNAKTKPREEQYNSTYRVVSVLTVLHQDWLNGKEYKCKVSNKALPAPIEKTISKAKGQPREPQVCTLPPSRDELTKNQVSLWCLVKGFYPSDIAVEWESNGQPENNYKTTPPVLDSDGSFFLYSKLTVDKSRWQQGNVFSCSVMHEALHNRYTQKSLSLSP light: DIVMTQSPLSLPVTPGEPASISCRSSQSLVHSNRATYLHWYQQKPGQAPRLLIYKVSNRFSGVPDRFSGSGSGTDFTLKISRVEAEDVGVYYCGQGTQVPYTFGQGTKLEIKRTVAAPSVFIFPPSDEQLKSGTASVVCLLNNFYPREAKVQWKVDNALQSGNSQESVTEQDSKDSTYSLSSTLTLSKADYEKHKVYACEVTHQGLSSPVTKSFNRGEC |
| 0.36 | GLS3000 N28V one-arm antibody (H chain CE115HA000) (antibody, human IgG1, kappa, L234A L235A, N297A, name in Kabat numbering, one-arm antibody) heavy: QVQLVESGGGVVQPGRSLRLSCAASGFTFSNAWMHWVRQAPGKGLEWVAQIKAKSNNYATYYAESVKGRFTISRDDSKNSLYLQMNSLKTEDTAVYYCRYVHYGAYYGVDAWGQGTTVTVSSASTKGPSVFPLAPSSKSTSGGTAALGCLVKDYFPEPVTVSWNSGALTSGVHTFPAVLQSSGLYSLSSVVTVPSSSLGTQTYICNVNHKPSNTKVDKKVEPKSCDKTHTCPPCPAPEAAGGPSVFLFPPKPKDTLMISRTPEVTCVVVDVSHEDPEVKFNWYVDGVEVHNAKTKPREEQYASTYRVVSVLTVLHQDWLNGKEYKCKVSNKALPAPIEKTISKAKGQPREPQVYTLPPSRCELTKNQVSLSCAVKGFYPSDIAVEWESNGQPENNYKTTPPVLDSDGSFFLVSKLTVDKSRWQQGNVFSCSVMHEALHNHYTQKSLSLSPDYKDDDDK EPKSSDKTHTCPPCPAPELLGGPSVFLFPPKPKDTLMISRTPEVTCVVVDVSHEDPEVKFNWYVDGVEVHNAKTKPREEQYNSTYRVVSVLTVLHQDWLNGKEYKCKVSNKALPAPIEKTISKAKGQPREPQVCTLPPSRDELTKNQVSLWCLVKGFYPSDIAVEWESNGQPENNYKTTPPVLDSDGSFFLYSKLTVDKSRWQQGNVFSCSVMHEALHNRYTQKSLSLSP light: DIVMTQSPLSLPVTPGEPASISCRSSQSLVHSVRNTYLHWYQQKPGQAPRLLIYKVSNRFSGVPDRFSGSGSGTDFTLKISRVEAEDVGVYYCGQGTQVPYTFGQGTKLEIKRTVAAPSVFIFPPSDEQLKSGTASVVCLLNNFYPREAKVQWKVDNALQSGNSQESVTEQDSKDSTYSLSSTLTLSKADYEKHKVYACEVTHQGLSSPVTKSFNRGEC |
| 0.41 | GLS3000 N28W one-arm antibody (H chain CE115HA000) (antibody, human IgG1, kappa, L234A L235A, N297A, name in Kabat numbering, one-arm antibody) heavy: QVQLVESGGGVVQPGRSLRLSCAASGFTFSNAWMHWVRQAPGKGLEWVAQIKAKSNNYATYYAESVKGRFTISRDDSKNSLYLQMNSLKTEDTAVYYCRYVHYGAYYGVDAWGQGTTVTVSSASTKGPSVFPLAPSSKSTSGGTAALGCLVKDYFPEPVTVSWNSGALTSGVHTFPAVLQSSGLYSLSSVVTVPSSSLGTQTYICNVNHKPSNTKVDKKVEPKSCDKTHTCPPCPAPEAAGGPSVFLFPPKPKDTLMISRTPEVTCVVVDVSHEDPEVKFNWYVDGVEVHNAKTKPREEQYASTYRVVSVLTVLHQDWLNGKEYKCKVSNKALPAPIEKTISKAKGQPREPQVYTLPPSRCELTKNQVSLSCAVKGFYPSDIAVEWESNGQPENNYKTTPPVLDSDGSFFLVSKLTVDKSRWQQGNVFSCSVMHEALHNHYTQKSLSLSPDYKDDDDK EPKSSDKTHTCPPCPAPELLGGPSVFLFPPKPKDTLMISRTPEVTCVVVDVSHEDPEVKFNWYVDGVEVHNAKTKPREEQYNSTYRVVSVLTVLHQDWLNGKEYKCKVSNKALPAPIEKTISKAKGQPREPQVCTLPPSRDELTKNQVSLWCLVKGFYPSDIAVEWESNGQPENNYKTTPPVLDSDGSFFLYSKLTVDKSRWQQGNVFSCSVMHEALHNRYTQKSLSLSP light: DIVMTQSPLSLPVTPGEPASISCRSSQSLVHSWRNTYLHWYQQKPGQAPRLLIYKVSNRFSGVPDRFSGSGSGTDFTLKISRVEAEDVGVYYCGQGTQVPYTFGQGTKLEIKRTVAAPSVFIFPPSDEQLKSGTASVVCLLNNFYPREAKVQWKVDNALQSGNSQESVTEQDSKDSTYSLSSTLTLSKADYEKHKVYACEVTHQGLSSPVTKSFNRGEC |
| 0.34 | GLS3000 N30D one-arm antibody (H chain CE115HA000) (antibody, human IgG1, kappa, L234A L235A, N297A, name in Kabat numbering, one-arm antibody) heavy: QVQLVESGGGVVQPGRSLRLSCAASGFTFSNAWMHWVRQAPGKGLEWVAQIKAKSNNYATYYAESVKGRFTISRDDSKNSLYLQMNSLKTEDTAVYYCRYVHYGAYYGVDAWGQGTTVTVSSASTKGPSVFPLAPSSKSTSGGTAALGCLVKDYFPEPVTVSWNSGALTSGVHTFPAVLQSSGLYSLSSVVTVPSSSLGTQTYICNVNHKPSNTKVDKKVEPKSCDKTHTCPPCPAPEAAGGPSVFLFPPKPKDTLMISRTPEVTCVVVDVSHEDPEVKFNWYVDGVEVHNAKTKPREEQYASTYRVVSVLTVLHQDWLNGKEYKCKVSNKALPAPIEKTISKAKGQPREPQVYTLPPSRCELTKNQVSLSCAVKGFYPSDIAVEWESNGQPENNYKTTPPVLDSDGSFFLVSKLTVDKSRWQQGNVFSCSVMHEALHNHYTQKSLSLSPDYKDDDDK EPKSSDKTHTCPPCPAPELLGGPSVFLFPPKPKDTLMISRTPEVTCVVVDVSHEDPEVKFNWYVDGVEVHNAKTKPREEQYNSTYRVVSVLTVLHQDWLNGKEYKCKVSNKALPAPIEKTISKAKGQPREPQVCTLPPSRDELTKNQVSLWCLVKGFYPSDIAVEWESNGQPENNYKTTPPVLDSDGSFFLYSKLTVDKSRWQQGNVFSCSVMHEALHNRYTQKSLSLSP light: DIVMTQSPLSLPVTPGEPASISCRSSQSLVHSNRDTYLHWYQQKPGQAPRLLIYKVSNRFSGVPDRFSGSGSGTDFTLKISRVEAEDVGVYYCGQGTQVPYTFGQGTKLEIKRTVAAPSVFIFPPSDEQLKSGTASVVCLLNNFYPREAKVQWKVDNALQSGNSQESVTEQDSKDSTYSLSSTLTLSKADYEKHKVYACEVTHQGLSSPVTKSFNRGEC |
| 0.26 | GLS3000 N28Y one-arm antibody (H chain CE115HA000) (antibody, human IgG1, kappa, L234A L235A, N297A, name in Kabat numbering, one-arm antibody) heavy: QVQLVESGGGVVQPGRSLRLSCAASGFTFSNAWMHWVRQAPGKGLEWVAQIKAKSNNYATYYAESVKGRFTISRDDSKNSLYLQMNSLKTEDTAVYYCRYVHYGAYYGVDAWGQGTTVTVSSASTKGPSVFPLAPSSKSTSGGTAALGCLVKDYFPEPVTVSWNSGALTSGVHTFPAVLQSSGLYSLSSVVTVPSSSLGTQTYICNVNHKPSNTKVDKKVEPKSCDKTHTCPPCPAPEAAGGPSVFLFPPKPKDTLMISRTPEVTCVVVDVSHEDPEVKFNWYVDGVEVHNAKTKPREEQYASTYRVVSVLTVLHQDWLNGKEYKCKVSNKALPAPIEKTISKAKGQPREPQVYTLPPSRCELTKNQVSLSCAVKGFYPSDIAVEWESNGQPENNYKTTPPVLDSDGSFFLVSKLTVDKSRWQQGNVFSCSVMHEALHNHYTQKSLSLSPDYKDDDDK EPKSSDKTHTCPPCPAPELLGGPSVFLFPPKPKDTLMISRTPEVTCVVVDVSHEDPEVKFNWYVDGVEVHNAKTKPREEQYNSTYRVVSVLTVLHQDWLNGKEYKCKVSNKALPAPIEKTISKAKGQPREPQVCTLPPSRDELTKNQVSLWCLVKGFYPSDIAVEWESNGQPENNYKTTPPVLDSDGSFFLYSKLTVDKSRWQQGNVFSCSVMHEALHNRYTQKSLSLSP light: DIVMTQSPLSLPVTPGEPASISCRSSQSLVHSYRNTYLHWYQQKPGQAPRLLIYKVSNRFSGVPDRFSGSGSGTDFTLKISRVEAEDVGVYYCGQGTQVPYTFGQGTKLEIKRTVAAPSVFIFPPSDEQLKSGTASVVCLLNNFYPREAKVQWKVDNALQSGNSQESVTEQDSKDSTYSLSSTLTLSKADYEKHKVYACEVTHQGLSSPVTKSFNRGEC |
